Assay results published in patent publication US20040072184.

Assays:
[1] = biological target: PDK1 peptide
[2] = biological target: T1, PKB-sub peptide
T1 chain: CKRPRAASFAE

[3] = biological target: T2, GST-SGK2 fusion protein
T2 chain: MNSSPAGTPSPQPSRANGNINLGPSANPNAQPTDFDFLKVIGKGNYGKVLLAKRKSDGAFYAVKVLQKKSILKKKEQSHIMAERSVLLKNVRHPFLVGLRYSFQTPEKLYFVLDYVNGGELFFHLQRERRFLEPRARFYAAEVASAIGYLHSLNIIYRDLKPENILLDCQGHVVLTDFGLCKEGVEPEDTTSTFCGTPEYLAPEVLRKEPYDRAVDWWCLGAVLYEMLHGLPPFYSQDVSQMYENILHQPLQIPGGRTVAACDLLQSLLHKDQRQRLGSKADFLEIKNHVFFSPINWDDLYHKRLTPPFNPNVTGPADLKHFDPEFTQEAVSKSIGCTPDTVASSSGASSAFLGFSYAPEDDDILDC

[4] = biological target: T3, CREBtide
T3 chain: KRREILSRRPSYR

[5] = biological target: T4, Calmodulin Dependent Protein Kinase Substrate
T4 chain: PLSRTLSVSS

[6] = biological target: T5, Syntide 2
T5 chain: PLARTLSVAGLPGKK

[7] = biological target: Histone H1
[8] = biological target: MBP

Sequence of PDK1 peptide (chain, as listed by the source): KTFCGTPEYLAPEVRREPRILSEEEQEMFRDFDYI

B1: GST-SGK2 fusion protein (protein)
chain: T2 chain
- in vitro kinase assay (32P incorporation) with purified SGK2 [1]: addition of same amount of control peptide (PDK1 peptide) had no significant incorporation
- in vitro kinase assay (32P incorporation) with purified SGK2 [2]: PKB-sub had significant incorporation of ^32P

B2: His-tag PDK1 (protein)
chain: MARTTSQLYDAVPIQSSVVLCSCPSPSMVRTQTESSTPPGIPGGSRQGPAMDGTAAEPRPGAGSLQHAQPPPQPRKKRPEDFKFGKILGEGSFSTVVLARELATSREYAIKILEKRHIIKENKVPYVTRERDVMSRLDHPFFVKLYFTFQDDEKLYFGLSYAKNGELLKYIRKIGSFDETCTRFYTAEIVSALEYLHGKGIIHRDLKPENILLNEDMHIQITDFGTAKVLSPESKQARANSFVGTAQYVSPELLTEKSACKSSDLWALGCIIYQLVAGLPPFRAGNEYLIFQKIIKLEYDFPEKFFPKARDLVEKLLVLDATKRLGCEEMEGYGPLKAHPFFESVTWENLHQQTPPKLTAYLPAMSEDDEDCYGNYDNLLSQFGCMQVSSSSSSHSLSASDTGLPQRSGSNIEQYIHDLDSNSFELDLQFSEDEKRLLLEKQAGGNPWHQFVENNLILKMGPVDKRKGLFARRRQLLLTEGPHLYYVDPVNKVLKGEIPWSQELRPEAKNFKTFFVHTPNRTYYLMDPSGNAHKWCRKIQEVWRQRYQSHPDAAVQ
- 32P phosphorylation of SGK2 after incubation with PDK1, SDS-PAGE [3]: SGK2 activated by PKD1 was significantly phosphorylated, while non-activated SGK2 was not
- in vitro kinase activity of SGK2 after activation by PDK1 [3]: the PDK1 activated SGK2 had significantly higher kinase activity compared to non-activated SGK2

B3: X-press-CaMK-X1 fusion protein (protein)
chain: MGRKEEDDCSSWKKQTTNIRKTFIFMEVLGSGAFSEVFLVKQRLTGKLFALKCIKKSPAFRDSSLENEIAVLKKIKHENIVTLEDIYESTTHYYLVMQLVSGGELFDRILERGVYTEKDASLVIQQVLSAVKYLHENGIVHRDLKPENLLYLTPEENSKIMITDFGLSKMEQNGIMSTACGTPGYVAPEVLAQKPYSKAVDCWSIGVITYILLCGYPPFYEETESKLFEKIKEGYYEFESPFWDDISESAKDFICHLLEKDPNERYTCEKALSHPWIDGNTALHRDIYPSVSLQIQKNFAKSKWRQAFNAAAVVHHMRKLHMNLHSPGVRPEVENRPPETQASETSRPSSPEITITEAPVLDHSVALPALTQLPCQHGRRPTAPGGRSLNCLVNGSLHISSSLVPMHQGSLAAGPCGCCSSCLNIGSKGKSSYCSEPTLLKKANKKQNFKSEVMVPVKASGSSHCRAGQTGVCLIM
- in vitro kinase assay (32P incorporation) with immunoprecipitated CaMK-X1 [4]: CaMK-X1 phosphorylated CREBtide and Syntide 2 in vitro
- in vitro kinase assay (32P incorporation) with immunoprecipitated CaMK-X1 [5]: CaMK-X1 could not phosphorylate control peptide
- in vitro kinase assay (32P incorporation) with immunoprecipitated CaMK-X1 [6]: CaMK-X1 phosphorylated CREBtide and Syntide 2 in vitro

B4: Histidine tagged CaMK-X1 expressed in Sf9 cells (protein)
chain: B3 chain
- in vitro kinase assay (32P incorporation) with Ni2+ column purified CaMK-X1 [4]: CREBtide and Syntide 2 are phosphorylated by the purified CaMK-X1
- in vitro kinase assay (32P incorporation) with Ni2+ column purified CaMK-X1 [5]: Syntide 2and CREBtide had higher incorporation of ^32p than the control peptide
- in vitro kinase assay (32P incorporation) with Ni2+ column purified CaMK-X1 [6]: CREBtide and Syntide 2 are phosphorylated by the purified CaMK-X1

B5: GST-DM-PK fusion protein (protein)
chain: MSAEVRLRRLQQLVLDPGFLGLEPLLDLLLGVHQELGASELAQDKYVADFLQWAEPIVVRLKEVRLQRDDFEILKVIGRGAFSEVAVVKMKQTGQVYAMKIMNKWDMLKRGEVSCFREERDVLVNGDRRWITQLHFAFQDENYLYLVMEYYVGGDLLTLLSKFGERIPAEMARFYLAEIVMAIDSVHRLGYVHRDIKPDNILLDRCGHIRLADFGSCLKLRADGTVRSLVAVGTPDYLSPEILQAVGGGPGTGSYGPECDWWALGVFAYEMFYGQTPFYADSTAETYGKIVHYKEHLSLPLVDEGVPEEARDFIQRLLCPPETRLGRGGAGDFRTHPFFFGLDWDGLRDSVPPFTPDFEGATDTCNFDLVEDGLTAMVSGGGETLSDIREGAPLGVHLPFVGYSYSCMALRDSEVPGPTPMEVEAEQLLEPHVQAPSLEPSVSPQDETAEVAVPAAVPAAEAEAEVTLRELQEALEEEVLTRQSLSREMEAIRTDNQNFASQLREAEARNRDLEAHVRQLQERMELLQAEGATAVTGVPSPRATDPPSHLDGPPAVAVGQCPLVGPGPMHRRHLLLPARVPRPGLSEALSLLLFAVVLSRAAALGCIGLVAHAGQLTAVWRRPGAARAP
- in vitro kinase assay with DM-PK purified from E. coli [7]: MBP and Histone H1 were both phosphorylated by purified DM-PK in these assays
- in vitro kinase assay with DM-PK purified from E. coli [8]: MBP and Histone H1 were both phosphorylated by purified DM-PK in these assays
